Reference: patent US20210356467

What was measured:
[1] = molecular target: CK1a (P48729) expressed in-frame upstream to the N-CAT fragment (UniProt P48729)
[2] = molecular target: GSPT1 (P15170) expressed in-frame upstream to the N-CAT fragment (UniProt P15170)
[3] = molecular target: IKZF1 (Q13422) expressed in-frame upstream to the N-CAT fragment (UniProt Q13422)
Chain of IKZF1 (Q13422) expressed in-frame upstream to the N-CAT fragment (Q13422 other isoform, or with tags, fused parts or gaps): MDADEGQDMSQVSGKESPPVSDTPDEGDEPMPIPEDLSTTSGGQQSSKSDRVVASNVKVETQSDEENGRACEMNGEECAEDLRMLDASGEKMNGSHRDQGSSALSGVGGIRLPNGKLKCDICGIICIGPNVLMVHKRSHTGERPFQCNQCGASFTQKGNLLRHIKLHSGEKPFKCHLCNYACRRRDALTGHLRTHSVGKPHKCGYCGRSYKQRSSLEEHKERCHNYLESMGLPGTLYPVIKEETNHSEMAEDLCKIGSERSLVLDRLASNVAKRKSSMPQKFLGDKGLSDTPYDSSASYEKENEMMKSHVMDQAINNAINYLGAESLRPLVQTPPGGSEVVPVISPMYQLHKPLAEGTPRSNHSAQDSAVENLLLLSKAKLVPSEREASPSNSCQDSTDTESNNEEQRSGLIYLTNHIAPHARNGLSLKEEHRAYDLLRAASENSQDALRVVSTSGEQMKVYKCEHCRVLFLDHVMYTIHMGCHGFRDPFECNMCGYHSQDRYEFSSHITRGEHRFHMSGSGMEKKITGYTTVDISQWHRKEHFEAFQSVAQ

Chain of Cereblon-E2 (Ubc4) fusion (chain, as listed by the source): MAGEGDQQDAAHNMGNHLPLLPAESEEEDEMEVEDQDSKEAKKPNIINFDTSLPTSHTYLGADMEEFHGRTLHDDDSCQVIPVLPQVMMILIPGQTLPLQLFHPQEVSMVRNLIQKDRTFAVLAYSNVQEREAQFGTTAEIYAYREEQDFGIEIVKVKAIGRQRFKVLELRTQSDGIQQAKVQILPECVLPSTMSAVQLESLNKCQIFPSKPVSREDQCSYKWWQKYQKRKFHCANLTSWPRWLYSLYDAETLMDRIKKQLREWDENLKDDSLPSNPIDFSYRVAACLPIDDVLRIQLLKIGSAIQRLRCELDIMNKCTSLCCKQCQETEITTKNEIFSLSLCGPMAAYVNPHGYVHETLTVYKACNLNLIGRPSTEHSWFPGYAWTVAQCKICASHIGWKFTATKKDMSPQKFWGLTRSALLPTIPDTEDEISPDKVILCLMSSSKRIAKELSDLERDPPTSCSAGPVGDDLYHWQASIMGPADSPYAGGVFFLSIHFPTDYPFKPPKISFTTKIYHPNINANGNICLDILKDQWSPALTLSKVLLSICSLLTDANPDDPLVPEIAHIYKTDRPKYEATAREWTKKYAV
Chain of CK1a (P48729) expressed in-frame upstream to the N-CAT fragment (P48729 other isoform, or with tags, fused parts or gaps): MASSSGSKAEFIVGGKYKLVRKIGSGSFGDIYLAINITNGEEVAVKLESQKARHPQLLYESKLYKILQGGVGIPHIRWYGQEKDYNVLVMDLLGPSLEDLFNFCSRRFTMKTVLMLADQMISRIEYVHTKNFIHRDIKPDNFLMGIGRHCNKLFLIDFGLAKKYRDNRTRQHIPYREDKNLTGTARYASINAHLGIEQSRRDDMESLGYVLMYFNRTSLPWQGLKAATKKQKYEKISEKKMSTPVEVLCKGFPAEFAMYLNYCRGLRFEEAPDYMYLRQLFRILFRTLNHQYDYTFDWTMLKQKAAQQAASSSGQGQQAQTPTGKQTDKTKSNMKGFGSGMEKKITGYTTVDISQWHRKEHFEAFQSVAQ
Chain of GSPT1 (P15170) expressed in-frame upstream to the N-CAT fragment (P15170 other isoform, or with tags, fused parts or gaps): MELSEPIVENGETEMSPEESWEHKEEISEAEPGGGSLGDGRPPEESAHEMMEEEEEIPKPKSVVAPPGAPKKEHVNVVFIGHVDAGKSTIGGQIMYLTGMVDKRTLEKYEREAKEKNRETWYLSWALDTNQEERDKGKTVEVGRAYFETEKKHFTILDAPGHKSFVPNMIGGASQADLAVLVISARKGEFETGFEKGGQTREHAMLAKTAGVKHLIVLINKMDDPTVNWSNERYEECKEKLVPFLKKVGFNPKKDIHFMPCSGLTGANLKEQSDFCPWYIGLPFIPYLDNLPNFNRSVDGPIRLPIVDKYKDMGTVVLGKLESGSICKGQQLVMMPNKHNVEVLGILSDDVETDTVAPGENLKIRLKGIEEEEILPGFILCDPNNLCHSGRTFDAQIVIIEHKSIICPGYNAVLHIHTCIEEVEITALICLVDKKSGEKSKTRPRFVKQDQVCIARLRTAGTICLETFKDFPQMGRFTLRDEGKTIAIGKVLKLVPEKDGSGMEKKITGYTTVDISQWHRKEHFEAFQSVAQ

## Cereblon-E2 (Ubc4) fusion
[1]
  growth of E. coli (OD600) under chloramphenicol, split-CAT ubiquitylation selection, with Lenalidomide (LLD): Thalidomide and Lenalidomide (TLD/LLD) significantly promoted the growth of E. coli that express CK1a
  growth of E. coli (OD600) under chloramphenicol, split-CAT ubiquitylation selection, with Thalidomide (TLD): Thalidomide and Lenalidomide (TLD/LLD) significantly promoted the growth of E. coli that express CK1a
[2]
  growth of E. coli (OD600) under chloramphenicol, split-CAT ubiquitylation selection, with CC-885: CC-885 significantly promoted the growth of E. coli that express GSPT1
[3]
  dose response of E. coli growth (OD600) to TLD and LLD, split-CAT selection: the selection system maintains this well-known optimum characteristic response to TLD and LLD
  growth of E. coli (OD600) under chloramphenicol, split-CAT ubiquitylation selection, with Lenalidomide (LLD): Thalidomide and Lenalidomide (TLD/LLD) significantly promoted the growth of E. coli that express IKZF1
  growth of E. coli (OD600) under chloramphenicol, split-CAT ubiquitylation selection, with Thalidomide (TLD): Thalidomide and Lenalidomide (TLD/LLD) significantly promoted the growth of E. coli that express IKZF1
